The record followed here is publication PMC7969121, “Structural and Kinetic Characterization of Hyperthermophilic NADH-Dependent Persulfide Reductase from Archaeoglobus fulgidus” (Archaea, 2021).

One may read the Km as the concentration of substrate that gives half-maximal velocity. As usually defined, the kcat is the maximal rate divided by the concentration of active sites. The term kcat/Km denotes the turnover number divided by the Michaelis constant.

Series [1] concerns the target T1, AfNpsr; A. fulgidus Npsr (Archaeoglobus fulgidus, UniProt O29847).
T1 construct: gene AF_0400; codon-optimized full-length gene in pET21b+, C-terminal His6-tag, E. coli BL21(DE3); FAD added; FAD domain 1-448, rhodanese domain 449-550
Nature of the series: X-ray crystal structure, […] Å. The format is binding. To be noted: tightly bound catalytic CoA in active site near Cys 42.

Substrate in series [2]: CC(C)(COP(=O)(O)OP(=O)(O)OC[C@H]1O[C@@H](n2cnc3c(N)ncnc32)[C@H](O)[C@@H]1OP(=O)(O)O)[C@@H](O)C(=O)NCCC(=O)NCCSS
Nature of the series: NADH oxidation at A340, Michaelis-Menten fit. Type of series: biochemical, Archaeoglobus fulgidus. The settings on record: 100 μM NADH, aerobic, 50 mM sodium phosphate pH 7.5, 70°C, persulfide made in situ from disulfide + 2-fold sodium sulfide, oxidase background not subtracted. The source says:
(§1) NADH oxidation at A340, Michaelis-Menten fit on AfNpsr; A. fulgidus Npsr

Substrate in series [3]: N[C@@H](CSS)C(=O)O
Nature of the series: NADH oxidation at A340, Michaelis-Menten fit. The format is biochemical, Archaeoglobus fulgidus. To be noted: 100 μM NADH, aerobic, 50 mM sodium phosphate pH 7.5, 70°C, persulfide made in situ from disulfide + 2-fold sodium sulfide, oxidase background not subtracted.
Source text: as §1

Substrate in series [4]: O=C(O)c1cc(SSc2ccc([N+](=O)[O-])c(C(=O)O)c2)ccc1[N+](=O)[O-]
Description: TNB formation at A412, Michaelis-Menten fit. The format is biochemical, Archaeoglobus fulgidus. The settings on record: 100 μM NADH, aerobic, 50 mM sodium phosphate pH 7.5, 70°C, buffer background subtracted. The source says: TNB formation at A412, Michaelis-Menten fit on AfNpsr; A. fulgidus Npsr

Substrate in series [5]: NC(=O)C1=CN([C@@H]2O[C@H](COP(=O)(O)OP(=O)(O)OC[C@H]3O[C@@H](n4cnc5c(N)ncnc54)[C@H](O)[C@@H]3O)[C@@H](O)[C@H]2O)C=CC1
Nature of the series: NADH oxidase, A340, Michaelis-Menten fit. The format is biochemical, Archaeoglobus fulgidus. The settings on record: aerobic, O2 as acceptor, no di-, per- or polysulfide, 50 mM sodium phosphate pH 7.5, 70°C. The text has this: NADH oxidase, A340, Michaelis-Menten fit on AfNpsr; A. fulgidus Npsr

On to `CC(C)(COP(=O)(O)OP(=O)(O)OC[C@H]1O[C@@H](n2cnc3c(N)ncnc32)[C@H](O)[C@@H]1OP(=O)(O)O)[C@@H](O)C(=O)NCCC(=O)NCCS` [CoA], for which the “X-ray crystal structure, 3.1 Å” value in series [1] is “In AfNpsr, CoA is deeply buried”.

B1: AfNpsr; A. fulgidus Npsr (Archaeoglobus fulgidus DSM 4304) (protein)
chain: MNVVVIGGGAAGLKAASRIRRKDGDASITVVEAGKYVSLGRCGLPYYVGGLVHEVDNLRETTYGAVRDEAYFKKLKNIDVLTETVATEIDRSRKTVKIVRNGSEDELNYDYLVIATGARPAKPPIEGIEAEGVVTLTSAEEAEKIIEMWEEGAEKAVVIGAGFIGLESAEALKNLDMEVTVIEMMDRVAPAMLDREMAVLVENHLREKGVNVVTSTRVEKIVSQDDKVRAVIANGKEYPADVVVVATGIKPNSELAEKAGLKIGETGAIWVDEYMRTSDESIYAGGDCVETTCLVTGKKIIAPFGDVANKQGRVIGENITGGRAVFPGVIRTAIFKVFDFTAASAGVNEQMAKEAGLDYFTVIAPSPDRAHYYPQANYIRLKLIVEKGSWRVIGAQGVGMGEVAKRIDVLSTAIQAGMTIDQLANLDLAYAPPYSPALDPVITIANVAMNKRDGLFEGINVFELKEKLEKEDIVILDVRSEEEFKTRRIESEKVIHIPILELRERLDEIPRDKEIVVVCAIGLRSFEASRILKHAGFEKVKILEGGMAFWF
notes: codon-optimized full-length gene in pET21b+, C-terminal His6-tag, E. coli BL21(DE3); FAD added; FAD domain 1-448, rhodanese domain 449-550
As for B1, the Km turned out to be 547 ± 41 µM in series [2], 3410 ± 630 µM in series [3], 743 ± 196 µM in series [4] and 20.6 ± 5.1 µM in series [5]. Further, the catalytic constant (kcat) in series [2] was found to be 13.2 ± 0.3 s⁻¹; in series [3], 230 ± 23 s⁻¹; in series [4], 2.44 ± 0.14 s⁻¹; in series [5], 7.15 ± 0.51 s⁻¹. In addition, the kcat/Km is 24100 ± 1400 M⁻¹ s⁻¹ in series [2], 67600 ± 11000 M⁻¹ s⁻¹ in series [3], 3280 ± 480 M⁻¹ s⁻¹ in series [4] and 347000 ± 75000 M⁻¹ s⁻¹ in series [5].
